The target of experiment [1] is T1, IL-3Ralpha, CD123, on CD123-positive human cancer cell lines (human, UniProt P26951 20-378).
T1 construct: Target of the flow cytometry and internalisation assays; The cell line of each value is named under assay
T1 sequence: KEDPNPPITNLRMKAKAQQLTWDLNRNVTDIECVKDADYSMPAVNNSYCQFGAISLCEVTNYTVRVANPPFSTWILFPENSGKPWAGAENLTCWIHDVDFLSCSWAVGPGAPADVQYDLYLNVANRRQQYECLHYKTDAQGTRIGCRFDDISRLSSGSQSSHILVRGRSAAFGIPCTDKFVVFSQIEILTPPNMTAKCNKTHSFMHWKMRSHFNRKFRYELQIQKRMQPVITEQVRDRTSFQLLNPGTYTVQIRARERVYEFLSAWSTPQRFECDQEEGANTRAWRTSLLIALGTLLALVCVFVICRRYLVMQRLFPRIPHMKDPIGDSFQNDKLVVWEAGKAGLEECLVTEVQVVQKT
As to the kind of experiment: flow cytometry on MV-4-11 cells, titration from 10 ug/ml in 1:5 steps, anti-kappa-FITC secondary antibody; MV-4-11 cells. A general note: Flow cytometry measures light scatter and fluorescence of single cells or particles in a stream.
Description: Binding of the anti-CD123 antibodies was examined by flow cytometry using different human haematological cell lines (MOLM-13, THP-1, KG-1). To this end, the cells (5×10⁵ cells/well) were incubated in FACS buffer (PBS without Ca/Mg, 3% FCS, Biochrom) with 10 μg/ml primary antibody solution (start concentration) on ice for 30-45 min protected from light. A dose activity curve (1:5 dilution) was plotted. After the incubation, 200 μl of ice-cold FACS buffer were added using a pipette, and the cell suspension was centrifuged at 4° C., 400 g, for 4 min. The cell pellet was washed with 300 μl of ice-cold FACS buffer and the pellet obtained was then resuspended in 100 μl FACS buffer and incubated again with secondary antibody (monoclonal anti-kappa light chains-FITC antibody, Sigma, No. SAB4700605) in a 1:10 dilution on ice for 30 min. The cells were then washed with ice-cold FACS buffer and adjusted to a cell concentration of 0.5×10⁶ cell/ml prior to flow cytometry using a Guava flow cytometer (Millipore). Propidium iodide (final concentration 1 μg/ml) was used for live staining.

Experiment [2] has as its target T2, TPP-5521, recombinant antigen IL3Ra aa20-305 (IL3R3alpha/CD123) (murine (as printed under 'Origin' in …, UniProt P26951 20-305 (human entry))).
T2 construct: Bought protein; also called IL3Ra protein; extracellular domain of IL3Ra
T2 sequence: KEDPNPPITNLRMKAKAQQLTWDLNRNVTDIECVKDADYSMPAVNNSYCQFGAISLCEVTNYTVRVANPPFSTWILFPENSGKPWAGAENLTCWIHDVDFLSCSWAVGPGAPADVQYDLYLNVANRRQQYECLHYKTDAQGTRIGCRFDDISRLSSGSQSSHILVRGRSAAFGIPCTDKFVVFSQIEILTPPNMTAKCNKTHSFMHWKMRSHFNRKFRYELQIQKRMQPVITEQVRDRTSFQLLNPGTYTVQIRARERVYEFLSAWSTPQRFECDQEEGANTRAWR
As to the kind of experiment: SPR, Biacore T200, antibody captured by anti-human Fc, IL3Ra (TPP-5521) as analyte 1.56-200 nM, 25 C, 1:1 Langmuir fit.
Description: Surface plasmon resonance experiments for quantitative binding analysis were carried out using a Biacore T200 instrument (GE Healthcare Biacore, Inc.). […] Amine coupling was performed according to the manufacturer's instructions using 1-ethyl-3-(3-dimethylaminopropyl)carbodiimide hydrochloride (EDC), N-hydroxysuccinimide (NHS) and ethanolamine HCl pH 8.5 (“Amine Coupling Kit” BR-1000-50, GE Healthcare Biacore, Inc.). For the analyses, Series S sensor chips CM5 (GE Healthcare Biacore, Inc.) were used with the mobile buffer HBS-EP+ (10 mM HEPES pH 7.4, 150 mM NaCl, 3 mM EDTA, 0.05% Surfactant P20). All experimental steps were carried out at 25° C. […] Prior to another analyte injection, antibodies were in each case fixed as above, under identical conditions. For all measurements, an upstream flow cell only containing immobilized amine-coupled anti-human Fc antibody was used as reference cell. Evaluation of the sensorgrams obtained was, after double referencing (subtraction of the reference flow cell signal and a buffer injection), carried out by a global fit based on a 1:1 Langmuir binding model with the aid of the Biacore T200 evaluation software (GE Healthcare Biacore, Inc.).

The EC50 is the concentration that produces a half-maximal response. Read a low EC50 as greater potency. Broadly, the koff is a measure of how fast the partners let go of each other. In general, kon refers to a measure of how fast the partners come together.

B1: TPP-5969 (antibody, human IgG1, kappa, V domains shown)
VH: QVQLVQSGAEVKKPGSSVKVSCKASGGTFSDYYMKWVRQAPGQGLEWMGDIIPSNGATFYAQKFQGRVTITADESTSTAYMELSSLRSEDTAVYYCARSHLLRASWFAYWGQGTLVTVSS
VL: DIVMTQSPDSLAVSLGERATINCESSQSLLNSGNQKNYLTWYQQKPGQPPKLLIYWASTRESGVPDRFSGSGSGTDFTLTISSLQAEDVAVYYCQNDYSYPYTFGQGTKLEIKR
notes: Humanized variant of 7G3 made by CDR grafting, human IgG1 kappa; Tested as unconjugated antibody; also called anti-CD123 AK1A; humanized variant of 7G3
In the case of B1, in experiment [1], the EC50 is 2.6 nM.

B2: TPP-6013 (antibody, human IgG1, kappa, V domains shown)
VH: QVQLQESGPGLVKPSQSLSLTCSVTDYSITSGYYWNWIRQFPGNKLEWMGYISYDGSNNYNPSLKNRISITRDTSKNQFFLKLSSVTTEDTATYYCSRGEGFYFDSWGQGTTLTVSS
VL: DIMMSQSPSSLAVSVGEKFTMTCKSSQSLFFGSTQKNYLAWYQQKPGQSPKLLIYWASTRESGVPDRFTGSGSGTDFTLAISSVMPEDLAVYYCQQYYNYPWTFGGGTKLEIKR
notes: Tested as unconjugated antibody; also called anti-CD123 AK1C; chimeric variant of 12F1
Regarding B2, in experiment [2], the off-rate (koff) was found to be 0.00019 s⁻¹ and the kon was 300000 M⁻¹ s⁻¹.

(Values after patent publication US20180318437A1 (Bayer, published 2018).)
